From PMC3711072

Biological target: CCR3 (UniProt P51677)
Sequence (P51677 whole entry): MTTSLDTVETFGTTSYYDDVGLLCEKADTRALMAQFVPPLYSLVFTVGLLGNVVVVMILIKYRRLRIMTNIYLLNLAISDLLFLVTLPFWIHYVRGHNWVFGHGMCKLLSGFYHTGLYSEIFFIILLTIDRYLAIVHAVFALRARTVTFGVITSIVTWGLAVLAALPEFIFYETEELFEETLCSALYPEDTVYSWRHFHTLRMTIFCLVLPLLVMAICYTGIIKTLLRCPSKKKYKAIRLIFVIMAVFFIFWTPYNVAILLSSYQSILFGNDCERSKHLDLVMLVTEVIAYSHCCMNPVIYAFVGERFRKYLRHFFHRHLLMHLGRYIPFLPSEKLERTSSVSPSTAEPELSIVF

Sequence of CCL5 (P13501 24-91): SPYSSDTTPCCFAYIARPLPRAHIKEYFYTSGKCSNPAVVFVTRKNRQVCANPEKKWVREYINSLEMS

CCL5 (from UniProt P13501 24-91) (ligand)
reduction of CCR3 surface expression on human eosinophils (flow cytometry), 12.5 nM CCL5, 15 and 60 min: 56.1%
